According to patent US8273357B2, “Antigen-carbohydrate conjugates” (Massachusetts Institute of Technology, priority 2004, dated 2012):

T1: mannose receptor (Homo sapiens, UniProt P22897)
T1 sequence (P22897 19-1456): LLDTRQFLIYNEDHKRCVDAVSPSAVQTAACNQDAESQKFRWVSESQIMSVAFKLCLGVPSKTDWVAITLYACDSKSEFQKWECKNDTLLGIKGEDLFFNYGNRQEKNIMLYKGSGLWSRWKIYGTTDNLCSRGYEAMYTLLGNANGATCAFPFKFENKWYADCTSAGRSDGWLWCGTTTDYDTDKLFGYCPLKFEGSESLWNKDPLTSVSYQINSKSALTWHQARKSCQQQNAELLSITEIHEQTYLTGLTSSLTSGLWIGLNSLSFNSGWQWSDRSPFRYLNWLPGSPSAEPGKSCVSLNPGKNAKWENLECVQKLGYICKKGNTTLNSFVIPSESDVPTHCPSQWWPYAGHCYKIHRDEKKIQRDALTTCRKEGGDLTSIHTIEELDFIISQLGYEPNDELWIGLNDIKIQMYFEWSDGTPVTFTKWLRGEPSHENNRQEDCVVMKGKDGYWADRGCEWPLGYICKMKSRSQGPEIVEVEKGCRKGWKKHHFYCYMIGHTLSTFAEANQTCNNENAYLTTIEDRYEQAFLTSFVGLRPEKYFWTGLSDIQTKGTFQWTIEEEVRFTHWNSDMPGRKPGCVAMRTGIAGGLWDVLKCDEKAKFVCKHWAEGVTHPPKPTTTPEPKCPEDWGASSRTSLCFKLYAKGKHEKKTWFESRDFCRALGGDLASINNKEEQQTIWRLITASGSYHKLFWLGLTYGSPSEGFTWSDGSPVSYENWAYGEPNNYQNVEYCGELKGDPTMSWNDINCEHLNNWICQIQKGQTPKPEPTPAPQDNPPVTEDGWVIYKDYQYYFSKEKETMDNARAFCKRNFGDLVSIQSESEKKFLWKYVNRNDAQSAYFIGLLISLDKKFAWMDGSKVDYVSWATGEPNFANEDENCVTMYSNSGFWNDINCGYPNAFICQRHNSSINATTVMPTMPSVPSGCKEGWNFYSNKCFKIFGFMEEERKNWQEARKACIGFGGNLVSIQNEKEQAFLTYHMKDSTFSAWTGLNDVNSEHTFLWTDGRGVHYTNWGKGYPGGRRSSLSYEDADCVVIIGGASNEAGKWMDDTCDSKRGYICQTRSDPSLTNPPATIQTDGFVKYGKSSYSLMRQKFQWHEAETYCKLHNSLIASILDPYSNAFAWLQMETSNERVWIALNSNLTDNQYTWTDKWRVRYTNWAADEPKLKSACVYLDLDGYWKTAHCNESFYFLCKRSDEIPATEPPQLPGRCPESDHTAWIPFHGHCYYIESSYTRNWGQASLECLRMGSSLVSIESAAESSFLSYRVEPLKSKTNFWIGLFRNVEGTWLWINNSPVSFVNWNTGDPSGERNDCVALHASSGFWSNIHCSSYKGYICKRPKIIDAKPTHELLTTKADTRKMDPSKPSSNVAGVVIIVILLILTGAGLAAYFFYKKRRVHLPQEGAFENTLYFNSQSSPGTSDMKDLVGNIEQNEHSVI


Columns and labels:
mannose receptor = target: T1, mannose receptor; settings: cited from earlier work
OTII T cells = test: Adoptive transfer, immunization, OVA peptide/CFA rechallenge at day 8, OTII cell count at day ten; format: in vivo, mouse
Experimental: FIGS. 8A and 8B are a series of dot plots (FIG. 8A) and a graph (FIG. 8B) showing that the oligosaccharide-mediated targeting of steady state dendritic cells leads to T cell tolerance. […] 2×10^7 OTII splenocytes were adoptively transferred into B6.Ly5.2/Cr recipients and then immunized by subcutaneous injection with PBS, OVA (200 ng), (OVA)-3-1 (200 ng), (OVA)-3-1 (200 ng)+mBSA (50 μg) or OVA peptide (100 μg) in Incomplete Freund's Adjuvant. At 8 days after these initial immunizations, mice received an antigenic rechallenge of OVA peptide (100 μg) in Complete Freund's Adjuvant. On day ten mice were sacrificed and cells were isolated from the draining lymph node, total T cells were purified by negative selection and the number of OTII T cells were counted by FACS as described for FIG. 6. […] Purified T cells from each experimental group were seeded at 3×10^5 cells/well with purified […] dendritic cells (9×10^4/well) and were incubated for twenty-four hours±OVA peptide (100 μg mL^−1) with [^3H]thymidine (1 μCi) added for the last ten hours. Prior to [^3H]thymidine addition, an aliquot of supernatant was removed for IFN-γ determination by ELISA.
At three days post-immunization, antibody-based targeting of the DEC-205 receptor led to a 6.5-fold enhancement of T cell activation relative to non-targeted antigen^2. After seven days, however, the activated T cell population diminished in number by 88% and the remaining T cells were unresponsive to systemic challenge of antigen in the highly stimulatory adjuvant CFA. […] To more fully understand the immunological consequences of these enhancements, OVA peptide (100 μg) was administered in CFA at eight days post-antigen immunization and the T cells' ability to respond to DC-presented peptide in vitro was assayed two days later (FIGS. 8A and 8B)^2: A positive control for T cell tolerance, consisting of a high dose administration of OVA peptide (100 μg) in Incomplete Freund's Adjuvant was also included. This regimen has been shown in a number of different studies to led to a state of T cell unresponsiveness upon antigen rechallenge^24,25.

purified T cells = test: Addition to purified T cells in the absence of antigen-presenting cells; format: cell-based, mouse; settings: no antigen-presenting cells
[1] = two days post-antigen rechallenge in CFA (day ten)

| Molecule | ligand for the mannose receptor (mannose receptor) | number of OTII T cells compared with OVA immunized mice (OTII T cells; day ten after immunization) | T cell deletion in vivo (OTII T cells; mouse, in vivo) | number of OTII cells relative to the saline control group (OTII T cells; [1]) [fold] | number of OTII cells relative to unmodified (soluble) OVA (OTII T cells; [1]) [fold] | T cell proliferation (purified T cells) |
| --- | --- | --- | --- | --- | --- | --- |
| mBSA: BSA modified with approximately 25 mannose residues per protein molecule [reference compound] | nanomolar ligand | – | – | – | – | – |
| (OVA)-3-1: ovalbumin modified via SMCC with nonasaccharide 3-1, average of three saccharides per OVA (conjugate) GSIGAASMEFCFDVFKELKVHHANENIFYCPIAIMSALAMVYLGAKDSTRTQINKVVRFDKLPGFGDSIEAQCGTSVNVHSSLRDILNQITKPNDVYSFSLASRLYAEERYPILPEYLQCVKELYRGGLEPINFQTAADQARELINSWVESQTNGIIRNVLQPSSVDSQTAMVLVNAIVFKGLWEKAFKDEDTQAMPFRVTEQESKPVQMMYQIGLFRVASMASEKMKILELPFASGTMSMLVLLPDEVSGLEQLESIINFEKLTEWTSSNVMEERKIKVYLPRMKMEEKYNLTSVLMAMGITDVFSSSANLSGISSAESLKISQAVHAAHAEINEAGREVVGSAEAGVDAASVSEEFRADHPFLFCIKHIATNAVLFFGRCVSP | – | much greater number | not observed | 6 | 7.8 | did not led to T cell proliferation |
